Test results reported in article PMC6325625, “The traffic ATPase PilF interacts with the inner membrane platform of the DNA translocator and type IV pili from Thermus thermophilus” (FEBS Open Bio, 2018).
Blank lines part the entries; values can stand above or below the molecule they belong to.

Experiments:
PilM [1] = target: PilM (Thermus thermophilus, UniProt Q72IW8); assay: luciferase assay of co-purified ATP after TCA precipitation; also UV photo cross-linking with [alpha-32P]-ATP; type: binding; conditions: ATP retained from E. coli, none added
PilM [2] = target: T1, PilM (Thermus thermophilus, UniProt Q72IW8, K26A); assay: UV photo cross-linking and autoradiography; luciferase ATP content; conditions: labelled compound [alpha-32P]-ATP; MN buffer pH 7.5, 5 mM MgCl2, 0.02% DDM, on ice; binding not detected
T1 construct: full length, N-terminal His6 tag kept; pET28a, E. coli BL21 (DE3), Ni-NTA from the soluble fraction of cells co-expressing pilN-Strep; about 44 kDa monomer
T1 sequence (Q72IW8 entry or part of it K26A): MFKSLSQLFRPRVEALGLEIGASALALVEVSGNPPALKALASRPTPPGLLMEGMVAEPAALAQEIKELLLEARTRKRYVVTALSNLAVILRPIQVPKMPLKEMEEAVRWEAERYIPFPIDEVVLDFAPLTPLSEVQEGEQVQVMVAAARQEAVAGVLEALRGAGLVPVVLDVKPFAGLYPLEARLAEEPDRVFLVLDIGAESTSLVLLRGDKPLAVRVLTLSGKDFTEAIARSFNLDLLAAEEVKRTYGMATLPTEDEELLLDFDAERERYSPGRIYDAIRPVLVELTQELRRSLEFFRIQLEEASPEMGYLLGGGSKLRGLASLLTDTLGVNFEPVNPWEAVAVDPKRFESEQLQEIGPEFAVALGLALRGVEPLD

[3] = target: His6-PilM-PilN-Strep complex (Thermus thermophilus HB27) (UniProt Q8VRL8)
[4] = target: His6-PilM(K26A)-PilN-Strep complex (Thermus thermophilus HB27) (UniProt Q8VRL8)
[5] = target: His6-PilF (traffic ATPase PilF, hexameric complex) (Thermus thermophilus); assay: native gel or EMSA; clear-native PAGE (3-15%) of purified His6-PilF; data not shown
[6] = target: PilN-Strep (Thermus thermophilus HB27) (UniProt Q8VRL7); assay: native gel or EMSA; 5-20% clear-native PAGE of purified His6-PilMN-Strep, His6-PilMNO-Strep and His6-PilM; bands of PilMN cut out and run on 14% SDS/PAGE

ATP per PilM monomer (PilM [1]): 0.89 ± 0.35 ATP per PilM monomer | UV photo cross-linking and autoradiography; luciferase ATP content (PilM [2]): no ATP was found in the PilMK26A variant
Molecule: Nc1ncnc2c1ncn2[C@@H]1O[C@H](COP(=O)(O)OP(=O)(O)OP(=O)(O)O)[C@@H](O)[C@H]1O [ATP]

ATPase activity of PilF (malachite green assay, 68 °C, 66.7 pmol PilF hexamer) with increasing amounts of PilMN, up to a ratio of 1 : 20 (PilF complex : PilMN complex) [3]: 2 fold | ATPase activity of the PilF hexamer mixed with PilM (K26A)N complex in a ratio of 1 : 20 [4]: 2 fold | stoichiometry N [5]: 6
Molecule: His6-PilF (traffic ATPase PilF, hexameric complex) (enzyme)

stoichiometry N [6]: 1 PilM : PilN | stoichiometry PilM : PilN of the larger (~195 kDa) oligomer, copies of each chain (copies of each chain) [6]: 3
B1: His6-PilM (soluble PilM from cells expressing His6-pilMN-Strep) (natural protein)
chain: MFKSLSQLFRPRVEALGLEIGASALKLVEVSGNPPALKALASRPTPPGLLMEGMVAEPAALAQEIKELLLEARTRKRYVVTALSNLAVILRPIQVPKMPLKEMEEAVRWEAERYIPFPIDEVVLDFAPLTPLSEVQEGEQVQVMVAAARQEAVAGVLEALRGAGLVPVVLDVKPFAGLYPLEARLAEEPDRVFLVLDIGAESTSLVLLRGDKPLAVRVLTLSGKDFTEAIARSFNLDLLAAEEVKRTYGMATLPTEDEELLLDFDAERERYSPGRIYDAIRPVLVELTQELRRSLEFFRIQLEEASPEMGYLLGGGSKLRGLASLLTDTLGVNFEPVNPWEAVAVDPKRFESEQLQEIGPEFAVALGLALRGVEPLD
